# In patent publication US20110281938, “APTAMERS TO TISSUE FACTOR PATHWAY INHIBITOR AND THEIR USE AS BLEEDING DISORDER THERAPEUTICS” (Baxter Healthcare S.A., published 2011):
# Target: T1, TFPI (tissue factor pathway inhibitor, full-length) (Homo sapiens, UniProt P10646 SEQ:1-276)
# Assay: competition; dot-blot
# Details: tags: American Diagnostica 4500PC/4900PC, E. coli expressed
# Experimental: (§1) The substituted ARC17480 molecules were assayed for binding and function. The assays used for this evaluation were the calibrated automated thrombogram (CAT) assay, a dot-blot binding-competition assay and a FXa activity assay. The results of these assays are summarized in Table 40 and depicted in FIG. 147. A mutation was considered tolerated for activity if it met the criteria of at least two of the three assays that were carried out. Mutations that are tolerated (“yes”) and not tolerated (“no”) are identified in Table 40. The experimental details and the criteria used for each assay are described in the following paragraphs. The molecules described in this example were first tested in the CAT assay and the dot-blot binding-competition assay. In most cases, molecules were only tested in the FXa assay if there was a discrepancy between the results in the CAT assay and the dot-blot binding-competition assay.
# (§2) Each molecule was evaluated for binding to tissue factor pathway inhibitor (TFPI) in a binding-competition assay. For these experiments, 10 nM human TFPI (American Diagnostica, Stamford, Conn., catalog #4900PC) was incubated with trace amounts of radiolabeled ARC17480 and 5000 nM, 1666.67 nM, 555.56 nM, 185.19 nM, 61.73 nM, 20.58 nM, 6.86 nM, 2.29 nM, 0.76 nM or 0.25 nM of unlabeled competitor aptamer. ARC17480 was included as a competitor in every experiment as a control. For each molecule, the percentage of radiolabeled ARC17480 bound at each competitor aptamer concentration was used for analysis. The percentage of radiolabeled ARC17480 bound was plotted as a function of aptamer concentration and fit to the equation y=(max/(1+x/IC₅₀))+int, where y=the percentage of radiolabeled ARC17480 bound, x=the concentration of aptamer, max=the maximum radiolabeled ARC17480 bound, and int=the y-intercept, to generate an IC₅₀ value for binding-competition. The IC₅₀ of each aptamer was compared to the IC₅₀ of ARC17480 that was evaluated in the same experiment. A mutation was considered tolerated in the binding-competition assay if the IC₅₀ of that molecule was not more than 5-fold greater than that of ARC17480 evaluated in the same experiment. Tolerated mutations are indicated in Table 40 as meeting the assay criteria (“yes”) or not meeting the assay criteria (“no”).
# T1 sequence (P10646 29-304): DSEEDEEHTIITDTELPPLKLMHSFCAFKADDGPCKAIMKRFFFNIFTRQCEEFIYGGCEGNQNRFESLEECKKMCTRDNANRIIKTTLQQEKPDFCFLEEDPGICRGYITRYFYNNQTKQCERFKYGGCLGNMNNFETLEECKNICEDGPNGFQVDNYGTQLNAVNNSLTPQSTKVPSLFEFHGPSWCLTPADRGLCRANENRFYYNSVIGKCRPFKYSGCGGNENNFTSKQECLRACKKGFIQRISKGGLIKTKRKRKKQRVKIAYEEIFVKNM
row,Binder,binding signal
1,"CGAAUAUACUUGGCUCGUUAGGUGCGUAUAUA (XNA, 2'-OMe except dC9, dC14, dC16, dC25; 3' idT) [ARC34857]",≤ 5 fold IC50 vs ARC17480
2,"GGAAUGUACUUGGCUCGUUAGGUGCGUAUAUA (XNA, 2'-OMe except dC9, dC14, dC16, dC25; 3' idT) [ARC34866]",≤ 5 fold IC50 vs ARC17480
3,"GGAAGAUACUUGGCUCGUUAGGUGCGUAUAUA (XNA, 2'-OMe except dC9, dC14, dC16, dC25; 3' idT) [ARC34865]",≤ 5 fold IC50 vs ARC17480
4,"GCAAUAUACUUGGCUCGUUAGGUGCGUAUAUA (XNA, 2'-OMe except dC9, dC14, dC16, dC25; 3' idT) [ARC34859]",≤ 5 fold IC50 vs ARC17480
5,"GGACUAUACUUGGCUCGUUAGGUGCGUAUAUA (XNA, 2'-OMe except dC9, dC14, dC16, dC25; 3' idT) [ARC34863]",≤ 5 fold IC50 vs ARC17480
6,"GGGAUAUACUUGGCUCGUUAGGUGCGUAUAUA (XNA, 2'-OMe except dC9, dC14, dC16, dC25; 3' idT) [ARC34860]",≤ 5 fold IC50 vs ARC17480
7,"GAAAUAUACUUGGCUCGUUAGGUGCGUAUAUA (XNA, 2'-OMe except dC9, dC14, dC16, dC25; 3' idT) [ARC34858]",≤ 5 fold IC50 vs ARC17480
8,"GGCAUAUACUUGGCUCGUUAGGUGCGUAUAUA (XNA, 2'-OMe except dC9, dC14, dC16, dC25; 3' idT) [ARC34861]",≤ 5 fold IC50 vs ARC17480
9,"GGAGUAUACUUGGCUCGUUAGGUGCGUAUAUA (XNA, 2'-OMe except dC9, dC14, dC16, dC25; 3' idT) [ARC34862]",≤ 5 fold IC50 vs ARC17480

# Target: T1, TFPI (tissue factor pathway inhibitor, …)
# Assay: competition; meets binding-competition criterion
# Details: tags: American Diagnostica 4500PC/4900PC, E. coli expressed
# Experimental: Each molecule was evaluated for binding to tissue factor pathway inhibitor (TFPI) in a binding-competition assay. For these experiments, 10 nM human TFPI (American Diagnostica, Stamford, Conn., catalog #4500PC) was incubated with trace amounts of radiolabeled ARC17480 and 5000 nM, 1666.67 nM, 555.56 nM, 185.19 nM, 61.73 nM, 20.58 nM, 6.86 nM, 2.29 nM, 0.76 nM or 0.25 nM of unlabeled competitor aptamer. ARC17480 was included as a competitor in every experiment as a control. For each molecule, the percentage of radiolabeled ARC17480 bound at each competitor aptamer concentration was used for analysis. The percentage of radiolabeled ARC17480 bound was plotted as a function of aptamer concentration and fit to the equation y=(max/(1+x/IC₅₀))+int, where y=the percentage of radiolabeled ARC17480 bound, x=the concentration of aptamer, max=the maximum radiolabeled ARC17480 bound, and int=the y-intercept, to generate an IC₅₀ value for binding-competition. The IC₅₀ of each aptamer was compared to the IC₅₀ of ARC17480 that was evaluated in the same experiment. A substitution was considered tolerated in the binding-competition assay if the IC₅₀ of that molecule was not more than 5-fold greater than that of ARC17480 evaluated in the same experiment. Tolerated substitutions are indicated in Table 38 as meeting the assay criteria (“yes”) or not meeting the assay criteria (“no”).
row,Binder,binding signal
1,"AUAUACUUGGCUCGUUAGGUGCGUAUAUA (mixed, 2'-OMe A/G/U, 2'-deoxy C, 3' idT) [ARC32303]",≤ 5 fold IC50 of ARC17480
2,"AAUAUACUUGGCUCGUUAGGUGCGUAUA (mixed, 2'-OMe A/G/U, 2'-deoxy C, 3' idT) [ARC32306]",≤ 5 fold IC50 of ARC17480
3,"AUAUACUUGGCUCGUUAGGUGCGUAUA (mixed, 2'-OMe A/G/U, 2'-deoxy C, 3' idT) [ARC33890]",≤ 5 fold IC50 of ARC17480
4,"AUAUACUUGGCUCGUUAGGUGCGUAU (mixed, 2'-OMe A/G/U, 2'-deoxy C, 3' idT) [ARC32307]",≤ 5 fold IC50 of ARC17480
5,"GGUAUACUUGGCUCGUUAGGUGCGUAUAUA (mixed, 2'-OMe A/G/U, 2'-deoxy C, 3' idT) [ARC33144]",≤ 5 fold IC50 of ARC17480
6,"GGAAUACUUGGCUCGUUAGGUGCGUAUAUA (mixed, 2'-OMe A/G/U, 2'-deoxy C, 3' idT) [ARC33907]",≤ 5 fold IC50 of ARC17480
7,"UUACUUGGCUCGUUAGGUGCGUAUA (mixed, 2'-OMe A/G/U, 2'-deoxy C, 3' idT) [ARC33900]",≤ 5 fold IC50 of ARC17480
8,"AUACUUGGCUCGUUAGGUGCGUAUA (mixed, 2'-OMe A/G/U, 2'-deoxy C, 3' idT) [ARC33895]",≤ 5 fold IC50 of ARC17480
9,"UAUACUUGGCUCGUUAGGUGCGUAUA (mixed, 2'-OMe A/G/U, 2'-deoxy C, 3' idT) [ARC33891]",≤ 5 fold IC50 of ARC17480
10,"GAAUAUACUUGGCUCGUUAGGUGCGUAUAU (mixed, 2'-OMe A/G/U, 2'-deoxy C, 3' idT) [ARC32305]",≤ 5 fold IC50 of ARC17480
11,"AAUAUACUUGGCUCGUUAGGUGCGUAUAUA (mixed, 2'-OMe A/G/U, 2'-deoxy C, 3' idT) [ARC32302]",≤ 5 fold IC50 of ARC17480
12,"GGAAUAUACUUGGCUCGUUAGGUGCGUAUAA (mixed, 2'-OMe A/G/U, 2'-deoxy C, 3' idT) [ARC33143]",≤ 5 fold IC50 of ARC17480
13,"GGAAUAUACUUGGCUCGUUAGGUGCGUAUAU (mixed, 2'-OMe A/G/U, 2'-deoxy C, 3' idT) [ARC18555]",≤ 5 fold IC50 of ARC17480

# Target: T1, TFPI (tissue factor pathway inhibitor, …)
# Assay: competition; meets binding-competition criterion
# Details: tags: American Diagnostica 4500PC/4900PC, E. coli expressed
# Remark: another data set of the same source
# Experimental: as §1, §2
row,Binder,binding signal
1,"GGAAUAUACUUGGCUCGUCAGGUGCGUAUAUA (mixed, 2'-OMe A/G/U and mC19, other C 2'-deoxy, 3' idT) [ARC33167]",≤ 5 fold IC50 of ARC17480
2,"GGAAUAUACCUGGCUCGUUAGGUGCGUAUAUA (mixed, 2'-OMe A/G/U and mC10, other C 2'-deoxy, 3' idT) [ARC33158]",≤ 5 fold IC50 of ARC17480
3,"UGAAUAUACUUGGCUCGUUAGGUGCGUAUAUA (mixed, 2'-OMe A/G/U, 2'-deoxy C, 3' idT) [ARC33149]",≤ 5 fold IC50 of ARC17480
4,"GGAAUAUACUUGGCUCGUUAGGUGCGUAUACA (mixed, 2'-OMe A/G/U and mC31, other C 2'-deoxy, 3' idT) [ARC33179]",≤ 5 fold IC50 of ARC17480
5,"GGUAUAUACUUGGCUCGUUAGGUGCGUAUAUA (mixed, 2'-OMe A/G/U, 2'-deoxy C, 3' idT) [ARC33151]",≤ 5 fold IC50 of ARC17480
6,"GGAAUAUACUUGGCUCGUUAGGUGCGUAUUUA (mixed, 2'-OMe A/G/U, 2'-deoxy C, 3' idT) [ARC33178]",≤ 5 fold IC50 of ARC17480
7,"GGAACAUACUUGGCUCGUUAGGUGCGUAUAUA (mixed, 2'-OMe A/G/U and mC5, other C 2'-deoxy, 3' idT) [ARC33153]",≤ 5 fold IC50 of ARC17480
8,"GUAAUAUACUUGGCUCGUUAGGUGCGUAUAUA (mixed, 2'-OMe A/G/U, 2'-deoxy C, 3' idT) [ARC33150]",≤ 5 fold IC50 of ARC17480
9,"GGAUUAUACUUGGCUCGUUAGGUGCGUAUAUA (mixed, 2'-OMe A/G/U, 2'-deoxy C, 3' idT) [ARC33152]",≤ 5 fold IC50 of ARC17480
10,"GGAAUAUACUUGGCUCGUUAGGUGCGUAUAUU (mixed, 2'-OMe A/G/U, 2'-deoxy C, 3' idT) [ARC33180]",≤ 5 fold IC50 of ARC17480

# Target: T1, TFPI (tissue factor pathway inhibitor, …)
# Assay: competition; dot-blot; CAT criterion not met
# Details: tags: American Diagnostica 4500PC/4900PC, E. coli expressed
# Experimental: as §1, §2
row,Binder,binding signal
1,"GGAAUAUGCUUGGCUCGUUAGGUGCGUAUAUA (XNA, 2'-OMe except dC9, dC14, dC16, dC25; 3' idT) [ARC34870]",≤ 5 fold IC50 vs ARC17480
2,"GGAAAAUACUUGGCUCGUUAGGUGCGUAUAUA (XNA, 2'-OMe except dC9, dC14, dC16, dC25; 3' idT) [ARC34864]",≤ 5 fold IC50 vs ARC17480
3,"GGAAUAUCCUUGGCUCGUUAGGUGCGUAUAUA (XNA, 2'-OMe except dC9, dC14, dC16, dC25; 3' idT) [ARC34871]",> 5 fold IC50 vs ARC17480
4,"GGAAUCUACUUGGCUCGUUAGGUGCGUAUAUA (XNA, 2'-OMe except dC9, dC14, dC16, dC25; 3' idT) [ARC34867]",≤ 5 fold IC50 vs ARC17480

# Target: T1, TFPI (tissue factor pathway inhibitor, …)
# Assay: competition; meets binding-competition criterion; CAT and FXa no
# Details: tags: American Diagnostica 4500PC/4900PC, E. coli expressed
# Experimental: as §1
# Each molecule was evaluated for binding to tissue factor pathway inhibitor (TFPI) in a binding-competition assay. For these experiments, 10 nM human TFPI (American Diagnostica, Stamford, Conn., catalog #4900PC) was incubated with trace amounts of radiolabeled ARC17480 and 5000 nM, 1666.67 nM, 555.56 nM, 185.19 nM, 61.73 nM, 20.58 nM, 6.86 nM, 2.29 nM, 0.76 nM or 0.25 nM of unlabeled competitor aptamer. ARC17480 was included as a competitor in every experiment as a control. For each molecule, the percentage of radiolabeled ARC17480 bound at each competitor aptamer concentration was used for analysis. […] The IC₅₀ of each aptamer was compared to the IC₅₀ of ARC17480 that was evaluated in the same experiment. A mutation was considered tolerated in the binding-competition assay if the IC₅₀ of that molecule was not more than 5-fold greater than that of ARC17480 evaluated in the same experiment. […]
row,Binder,binding signal
1,"GGAAUACACUUGGCUCGUUAGGUGCGUAUAUA (mixed, 2'-OMe A/G/U and mC7, other C 2'-deoxy, 3' idT) [ARC33155]",≤ 5 fold IC50 of ARC17480
2,"GGAAUAUACUUGGTUCGUUAGGUGCGUAUAUA (mixed, 2'-OMe A/G/U, dT14, 2'-deoxy C, 3' idT) [ARC33162]",≤ 5 fold IC50 of ARC17480
3,"GGAAUAUUCUUGGCUCGUUAGGUGCGUAUAUA (mixed, 2'-OMe A/G/U, 2'-deoxy C, 3' idT) [ARC33156]",≤ 5 fold IC50 of ARC17480
